Results from the nanobody polyreactivity screen of Harvey et al. (2022).

test: yeast display, Sf9 membrane polyspecificity reagent, FACS + sequencing; frameworks hold sequencing errors
In short: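 Sorting gates, low and high (top ~1%), were placed on anti-HA fluorescence to track expression and on streptavidin fluorescence to track reagent binding. A clone's polyreactivity label is taken from the gate it came out of. The reagent was 10% biotinylated, detergent-solubilized Sf9 membrane, applied for 1 hour at 4 °C to galactose-induced yeast display cells.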

Row | Sequence | polyreactivity (PSR sort gate)
1 | QVQLVESGGGLVQAGGSLRLSCAASGRTFYGNGMGWYRQAPGKDRELVAAISWSGGSTYYADSVKGRFTISRDNAKNTVYLQMNSLKPEDTAVYYCAAAYRSFIIGRWYDYWGQGTQVTVSS | low polyreactivity
2 | QVQLVESGGGLVQAGGSLRLSCAASGSIFSGNAMGWYRPAPGKGRELVAGSSRRGGRTYYADSVKGRFTISRDNAKNTVYIPMNSLKPEDPAVYYCNKDVFGDTREYDYWGQGTQVTVSS | high polyreactivity
3 | QVQLVESGGGLAQAGGSLRLSCAASGRIIYFNAMGWYRQAPGKEREFVAAISSSGNTYYADSVKGRFTISLDNAKNTVYLQMNSLKPEDTEVYYCDAAIYSYYPASGYKRYDYWGQGTQVTVSS | high polyreactivity
4 | QVQLVESGGGLVQAGGSLRLSCAASGRTFYRNAMGWYRQAPGKERELVATITRRGGSTYYADSVKGRFTISRDNAKNTVYLQMISLKPEDTAVYYCAAGSKDLYRPYDYWGQGTQVTVSS | high polyreactivity
5 | QVQLVESGGGLVQAGGSLRLSCAASGKTFVYYTMGWYRQAPGKERELVAAISYSGGSTYYADSVKGRFTLSRDNAKNTVYLQMNSLKPEDTAVYYCAKQVADRYDYWGQGTQVTVSS | low polyreactivity
6 | QVQLVESGGGLVQAGGSLRLSCPASGFIYWSYAMGWYRQAPGKERELVADIDSDASTDYADSVKGRFTITRDNAKNTVYLQMNSLKPEDTAVYYCAALASIQQYPGNFYYWGQGTQVTVSS | high polyreactivity
7 | QVQLVESGGGLVQAGGSLRLSCAASGSTLTRNTMGCYRQAPAKERELVATNTRSGGSTYYADSVKGRFTISRDNAKNTVYLQMNSLKPEDTAVYYCAVRRQTFRYVYPGMDYWGQGTQVTVSS | high polyreactivity
8 | QVQLVESGVGLVQAGGSLRLSCAASGFIFPYYTMGWFRPAPGKERELVAAINVSGGSTYYADSVKGRFTISRDNAKNTVYVQMNSLKPEDTAVYYCAAVGGRFVGRSTMDYWGQGTQVTVSS | low polyreactivity
9 | QVQLVESGGGLVQAGGSLRLSCDASGSIFSQYAMGWDRQAPGKEWELVAAITWSGGSTYYADSVMGRFTFSRDNAKNTVYLQMNSLKPEDTEVYYCAATGYYYTRSSTWYRYYYWGQGTQVTVSS | high polyreactivity
10 | QVQLVESGGGLVQAGGSLRLSCADSGYTFSPNAMGWYRQAPGKELELVAAISSAVSTDYADSVKGRFTISRDNAKNTVYLQMNSLKPEDTAVYYCAADDQYRVTLGYDYWGQGTQVTVSS | low polyreactivity
11 | QVQLVESGGGLVQAGGSLRLSCAASGGIFPYYAMGWYSQAPGKEMELVAGISQNDGRTYYADSVKGRFTISRDNAKNTVYLQMNSLKPEDTAVYYCATVYWYPRYGYWGQGTQVTVSS | low polyreactivity
12 | QVQLVESGGGLVLAGGSLRLSCAASGSMFGGYAMGWYLQSPGKERELVAAISYRGASTYYADSVKGRFTISRDNAKNTVYLQMNSVKPEDTAVYYCAVAARTRDRVLYGYDYWGQGTQVTVSS | low polyreactivity
13 | QDQLVETGGGLVQAGGSLRLSCAAYGSIFDLNAMGWYRQAPGKESELVAAITYSSGRTYYADSVKGRFTISRDNAKNTVYLQMNSLKPEDTAVYYCNADLWFHYYRYNYWGQGTQVTVSS | high polyreactivity
14 | QVQLVESGGGLVQAGGSLRLSCAASGRTFHRYAMGWYRQAPGKERELVATISRGGSTNYADSVKGRFTISRDNAQTTVYLQRNSLKTEETAVYYCAREYYGSWDSGGGGYWGQGTQVTVAS | high polyreactivity
15 | QVQLVESGGGLGQAGGSLRLSCAASGNTFWAYAMGWYRQAPGKERELVAGISSRGSRTYFADSVKGRFTISRDNAKNTVYLQMNSLKPEDSAVDFCNALRTPPGYYPPFDYWGEGTQVTVSS | high polyreactivity
16 | QVQLVESGGGLVQAGGSLRLSCAASGLTFRKYAMGWYRQAPGKERELVAAITGSGGRTYYADSVKGRFTISRDNAKNTVYLQMNSLKPEDTAVYYCAADDYFHDDYCGQGTQVTVSS | high polyreactivity
17 | QVQLEESGGGLVQAGGSLRLTCAASGRIFYRNSMGWYRQATGKERELVATISGRGGSTYYADSVKGRFTISRDNAKNTDYLQMNSLKPEDTAVYYCAVRNHGSVRWTGESWGQGTQVTVSS | high polyreactivity
18 | QVQHVESGGCLVQAGGSLRLSCASSGSIFDRNAMGWYRQAPGKERELVAAISSRGGSTYYADSVKGRFTISRDNAKNTVYLQMNSLKPEDTAVYYSAKRRDLYGGYRPYYYWGQGTQVTVSS | high polyreactivity
19 | QVQLVESGGGLVQAGGSLRLSCAASGRTFKLNAMGWYRQAPGKERELVAAISRNGGSTYYADSVKGRFTISRDNAKNTVYLQMNSLKPEDTAVYYCAAVRHGVSLAGYYWGQGTQVTVSS | high polyreactivity
20 | QVQLVESGGGLVQAGGSLRLSCAASGIIFTVYAMGWYRQAPGKERELVAAITSSGGRTYYADSVKGRFTISRDNAKNTVYLQMNSLKPEDTAVYYCAASIWLYRYYYWGQGTQVTVSS | high polyreactivity

Row | Sequence | polyreactivity (PSR sort gate)
21 | QVQLVESGGGLVEAGGSLRLSCAASGLTFEVYAMGWYRHAPGKERELVAVITSVGSTNYADSVKGRFTISRDNAKNTVYLQMNSLKPEDTAVYYCAADKWTVRRFNPYTYYRYDYWGQGTQVTVSS | low polyreactivity
22 | QGQLVESGGGLVQAGGSLRLSCAASGFTISSYAMGWYRQATGKEREMVAAISSSGSRTSYADSVKVRFTISRDIAKNSVYFQMNSLKPEDTAVYYCAARPGDGGYYYWGQGTQVTVSS | high polyreactivity
23 | QVQLVESGGGLVQAGGSLRLSCAASGSTFDDYAMGWYRPAPGKERELVAAISSDGSTNYADSVKGRFTISRDNAKNTVYLQMNSLKPEDTAVYYCAAESPWDWGYWFEALYDYWGQGTQVNVSS | high polyreactivity
24 | QVQLVESGGGLVQAGGSLRLSCAASGRTFGYYAMGWYRQAPGKERELFDAITGRTSRTYYADSVKGRFTISRDNAKNTVYLQMNSLKPEDTAVYYCAARYTRWRYNYKDYDYWGQGTQVTVSS | high polyreactivity
25 | QVQLVESGGGLVQAGGSLRLSCAASGLTIQRNDMGWYRQAPGKEREFVATITSNAGSTYYADSVKGRFTISRDNAKNTVYLQMNSLKPEDTAVYYCARERWWGGSDYWGQGTQVTVSS | high polyreactivity
26 | QVQLVESGGGLVQAGGSLRLSCAASGITFWRYALGWYRQAPGKEMELVAASRWSGSTYADSVKGRFTISRDNAKNTVYLQMNSLKPEDTAVYYCAAYPIGGYHDMDYWGQGTQVTVSS | high polyreactivity
27 | QVQLVESGGGLVQAGGSLRLSCAASGFIFAIYAMGWYRQAPGKERELVAAITSSSSTYADSVKGRFTISRDNAKNTVYLQMNSLKPEDTAVYYCAADTYSYRNSNDYWGQGTQVTVSS | low polyreactivity
28 | QVQLVESGGGLVQAGGSLRLSCAASGRTFTTYAMGWYRQSPGKERELVAAISGSGGSTYYADSVKGRFTISRDNAKNTVYLQMNSLKPEDTAVYYCATAYYYHGGYYYPYDDYWGQGTQVTVSS | low polyreactivity
29 | QVQLVESGGGLVQAGGSLRLSCAASGLTVDTYDMGWYIQAPGKERELVAAIDWSGVSTYYADSVKGRFTISRDNAKNTVYLQKNSLKTEDTAVYYCAADLLQYDIASWDYTYDYWGQGTQVTVSS | low polyreactivity
30 | QVQLVESGGGLVQAGGSLRLSCAAYGSIFRWYAMGWYRQAPGKERELVAAISTSGGNKYYADSVKGRFTISRDNAKNTVYLQMNSLKPEDTAVYYCNALWYRSLSYRYDYWGQGTQVTVSS | high polyreactivity
31 | QVQLVESGGGLVQAGGSLRLSCAASGNTFVPYAMGWYRQAPGKERELVAAISWRGGSTYYADSVKGRFTISRDNAKNTVYLQMNSLKPEDTAVYYCAARTFYRPGLAGGYWGQGTQVTVSS | high polyreactivity
32 | QVQLVESGGGLVQAGGSLRLSCAASGNILEGYTMGWYRQAPGKERELVATISGRGGSTYYADSVKGRFTISRDYAKNTVYLQMHSLKPEDTAVYYCNALPWALYDSTSIYYYWGQGTQVTVSS | low polyreactivity
33 | QVQLVESGGGLVQAGGSLRLSCAASGITLLYYAMGWYRQAPGKERELVAAISRRGGSTYYADSVKGRFTISRDNAKNTVYLQMNSLKPEDTAVYYCAAYSPYGGYHYLYDYWGQGTQVTVSS | high polyreactivity
34 | QVQLVESGGGLDQAGGSLRLSCAASGRTFYYYAMAWYRQAPRTERELVAAIRRSGSSTYYADSVKGRFTISRDNAKNTVYLQMNSLKPEDTAFYYCAAAVYQRARYYWGQGTQVTVSS | high polyreactivity
35 | QVQLVESGGGLVQAGGSLRLSCAASGFTFLGYAMGWYRQAPGKERELVAAITRGGSTYYADSVKGRFTISRDNAKNTVYLQMNSLKPEDTAVYYCAARARAGGYGYWGQGTQVTVSS | high polyreactivity
36 | QVQLVESGGGLVQAGGSLRLSCAASGSIFGGYGMGWYRQAPGKERELVAAITSGSSTYYADSVTGRFTISRDNAKNTVYLQMNSLKPEDTAVYYCAARPYPHSAYEGDYWGRGTQVTVSS | low polyreactivity
37 | QVQLVESGGGLVQAGGSLRLSCAASGLTFNTYAMGWYRQAPGKERELVAAITKGGGRTYYADSVKGRFTISRDNAKNTVYLQMNSLKPEDTAVYYCAAYGYIYRVGYANGVVTSQDDYWGQGTQVTVSS | high polyreactivity
38 | QVQILETGGGLVQAGGSLSLSCAASGSIFYSNAMGWYRQAPGKESEIVAAISAGGGSTYYADSVKGRFTISRDNAINTVYLQMNSLKPEDTAVYYCAAQPYKIIYPYDYWGQGTQVTVSS | low polyreactivity
39 | QVQLVESGGGLVQAGGSLRLSCAASGLTFYYYAMGWYRQAPGKERELVAGISGSDGSTYYADSVKGRFTISRDNAKNTVYLQMNSLKPEDTAVYYCAAEYYYPWPLYYITDGIYDMYYWGQGTQVTVSS | low polyreactivity
40 | QVQIEESGGGLVQAGGSHRLSCAASGRTFGGNAMGRYRQAPRKERELVAAISISGGSNTYYADSVKGRFTISRDTGKNTVYLQMNSLKPEDTAVYFCAARSTVYISSDYWGQGTQVTVSS | low polyreactivity
